The sequences below were run on Escherichia coli TOP10 (assay: shrunken log2 fold change of peptide-encoding DNA abundance (4.5 h post-induction vs induction); higher = less antimicrobial activity (less host growth inhibition)). Settings: time post-induction: 4.5 h; library: site-saturation at positions 5, 18, 19, 20.
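Also: peptides expressed intracellularly from a pBAD plasmid library in pooled LB shake-flask culture, induced with 0.3% L-arabinose, DNA abundance read by NGS, three biological replicates, DESeq2 with apeglm shrinkage.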

Sequence	shrunken log2 fold change
RRIRSRPPRLPRPRPRPTTFPRP	-0.272
RRIRQRPPRLPRPRPRPWDPPRP	-0.327
RRIRRRPPRLPRPRPRPRILPRP	-0.143
RRIRPRPPRLPRPRPRPANQPRP	0.0414
RRIRLRPPRLPRPRPRPYCTPRP	1.26
RRIRKRPPRLPRPRPRPHMLPRP	-0.105
RRIRIRPPRLPRPRPRPYREPRP	-0.0673
RRIRFRPPRLPRPRPRPDKWPRP	0.0538
RRIRSRPPRLPRPRPRPHANPRP	-0.168
RRIRERPPRLPRPRPRPVTSPRP	-0.23
RRIRYRPPRLPRPRPRPAGQPRP	0.00356
RRIRQRPPRLPRPRPRPYNLPRP	-0.00751
RRIRKRPPRLPRPRPRPWQKPRP	0.121
RRIRPRPPRLPRPRPRPFSQPRP	-0.231
RRIRKRPPRLPRPRPRPDSEPRP	-0.0164
RRIRHRPPRLPRPRPRPPYYPRP	-0.296
RRIRARPPRLPRPRPRPKAIPRP	0.496
RRIRFRPPRLPRPRPRPIFYPRP	-0.0962
RRIRCRPPRLPRPRPRPQGEPRP	0.161
RRIRMRPPRLPRPRPRPNARPRP	0.323
RRIRVRPPRLPRPRPRPTKLPRP	-0.121
RRIRMRPPRLPRPRPRPGPSPRP	1.23
RRIRFRPPRLPRPRPRPMKYPRP	-0.664
RRIRLRPPRLPRPRPRPEFTPRP	-0.0622
RRIRTRPPRLPRPRPRPVAAPRP	0.389

Sequence	shrunken log2 fold change
RRIRMRPPRLPRPRPRPKHHPRP	0.148
RRIRFRPPRLPRPRPRPPSHPRP	0.123
RRIRVRPPRLPRPRPRPKFCPRP	-0.137
RRIRLRPPRLPRPRPRPLIMPRP	-0.435
RRIRSRPPRLPRPRPRPQLMPRP	-0.1
RRIRTRPPRLPRPRPRPFAMPRP	-0.348
RRIRIRPPRLPRPRPRPWVHPRP	-0.0605
RRIRHRPPRLPRPRPRPGHHPRP	-0.132
RRIRCRPPRLPRPRPRPLGAPRP	0.444
RRIRCRPPRLPRPRPRPISPPRP	0.153
RRIRSRPPRLPRPRPRPAQGPRP	0.19
RRIRVRPPRLPRPRPRPFDIPRP	0.145
RRIRGRPPRLPRPRPRPTHAPRP	1.3
RRIRIRPPRLPRPRPRPHGNPRP	0.142
RRIRGRPPRLPRPRPRPAMFPRP	0.455
RRIRGRPPRLPRPRPRPGHFPRP	-0.0383
RRIRFRPPRLPRPRPRPQECPRP	0.0519
RRIRARPPRLPRPRPRPYRFPRP	0.0859
RRIRSRPPRLPRPRPRPLWGPRP	-0.00343
RRIRGRPPRLPRPRPRPRGMPRP	0.939
RRIRQRPPRLPRPRPRPQKTPRP	-0.064
RRIRKRPPRLPRPRPRPDIRPRP	0.0731
RRIRFRPPRLPRPRPRPMYEPRP	-0.309
RRIRYRPPRLPRPRPRPKCVPRP	0.0122
RRIRERPPRLPRPRPRPICEPRP	0.0105

Sequence	shrunken log2 fold change
RRIRLRPPRLPRPRPRPLEPPRP	0.0493
RRIRGRPPRLPRPRPRPRTLPRP	0.477
RRIRIRPPRLPRPRPRPTGAPRP	-0.0341
RRIRRRPPRLPRPRPRPPGAPRP	0.972
RRIRCRPPRLPRPRPRPWCVPRP	-0.0995
RRIRWRPPRLPRPRPRPHPEPRP	0.275
RRIRPRPPRLPRPRPRPCAIPRP	-1.01
RRIRSRPPRLPRPRPRPNKTPRP	-0.286
RRIRYRPPRLPRPRPRPQWVPRP	-0.0081
RRIRLRPPRLPRPRPRPNCGPRP	-0.0908
RRIRERPPRLPRPRPRPFEYPRP	0.0143
RRIRFRPPRLPRPRPRPMYPPRP	-0.249
RRIRYRPPRLPRPRPRPTMWPRP	0.0172
RRIRRRPPRLPRPRPRPPLFPRP	0.464
RRIRSRPPRLPRPRPRPMPEPRP	0.376
RRIRQRPPRLPRPRPRPVPMPRP	0.132
RRIRYRPPRLPRPRPRPLHCPRP	-0.724
RRIRSRPPRLPRPRPRPVQIPRP	0.111
RRIRRRPPRLPRPRPRPNKPPRP	0.101
RRIRMRPPRLPRPRPRPNCAPRP	0.317
RRIRWRPPRLPRPRPRPDGLPRP	0.393
RRIRERPPRLPRPRPRPFKRPRP	0.0596
RRIRRRPPRLPRPRPRPCTQPRP	0.207
RRIRTRPPRLPRPRPRPHHPPRP	-0.135
RRIRMRPPRLPRPRPRPVGSPRP	0.99

Sequence	shrunken log2 fold change
RRIRSRPPRLPRPRPRPKAMPRP	-0.148
RRIRARPPRLPRPRPRPVVVPRP	0.652
RRIRGRPPRLPRPRPRPHLEPRP	0.381
RRIRWRPPRLPRPRPRPMQHPRP	0.596
RRIRMRPPRLPRPRPRPMTMPRP	0.178
RRIRRRPPRLPRPRPRPSWPPRP	0.0963
RRIRNRPPRLPRPRPRPTFMPRP	-0.401
RRIRPRPPRLPRPRPRPTTDPRP	0.0167
RRIRGRPPRLPRPRPRPVMEPRP	0.546
RRIRDRPPRLPRPRPRPYSRPRP	-0.00164
RRIRLRPPRLPRPRPRPTTLPRP	0.0342
RRIRSRPPRLPRPRPRPSKEPRP	-0.0581
RRIRNRPPRLPRPRPRPCWLPRP	-0.7
RRIRPRPPRLPRPRPRPSWFPRP	-0.248
RRIRARPPRLPRPRPRPEDAPRP	0.894
RRIRSRPPRLPRPRPRPSSQPRP	0.0487
RRIRYRPPRLPRPRPRPQRCPRP	-0.0766
RRIRRRPPRLPRPRPRPVFEPRP	0.192
RRIRPRPPRLPRPRPRPYGCPRP	-0.0896
RRIRLRPPRLPRPRPRPKHWPRP	0.31
RRIRPRPPRLPRPRPRPCPFPRP	-0.371
RRIRGRPPRLPRPRPRPRYSPRP	-0.173
RRIRARPPRLPRPRPRPLCPPRP	0.0472
RRIRYRPPRLPRPRPRPLYNPRP	-1.11
RRIRVRPPRLPRPRPRPQQMPRP	0.0393

Sequence	shrunken log2 fold change
RRIRSRPPRLPRPRPRPFGWPRP	0.0625
RRIRTRPPRLPRPRPRPHEKPRP	-0.0018
RRIRIRPPRLPRPRPRPPDDPRP	0.494
RRIRIRPPRLPRPRPRPEPNPRP	-0.0783
RRIRSRPPRLPRPRPRPEDTPRP	-0.00541
RRIRERPPRLPRPRPRPQWYPRP	-0.56
RRIRFRPPRLPRPRPRPTPKPRP	0.681
RRIRLRPPRLPRPRPRPHQMPRP	-0.199
RRIRPRPPRLPRPRPRPDLKPRP	-0.0801
RRIRNRPPRLPRPRPRPMTDPRP	-0.088
RRIRWRPPRLPRPRPRPRWTPRP	0.386
RRIRSRPPRLPRPRPRPVVWPRP	0.462
RRIRERPPRLPRPRPRPHQLPRP	0.0377
RRIRERPPRLPRPRPRPIPVPRP	-0.217
RRIRCRPPRLPRPRPRPMLGPRP	-0.0961
RRIRGRPPRLPRPRPRPRIPPRP	0.424
RRIRPRPPRLPRPRPRPEQIPRP	0.0118
RRIRIRPPRLPRPRPRPSMWPRP	-0.178
RRIRLRPPRLPRPRPRPIYRPRP	-0.0597
RRIRYRPPRLPRPRPRPMYMPRP	-2.38
RRIRLRPPRLPRPRPRPVEWPRP	-0.228
RRIRTRPPRLPRPRPRPMSHPRP	-0.238
RRIRGRPPRLPRPRPRPTFIPRP	-0.0836
RRIRCRPPRLPRPRPRPDKHPRP	-0.333
RRIRYRPPRLPRPRPRPGVLPRP	-0.916

— the supplement of paper PMC9112550, “Optimization of the antimicrobial peptide Bac7 by deep mutational scanning” (BMC Biology, 2022)
